Target: human GLP-2 Receptor (human) (UniProt O95838)
Sequence of UniProt O95838 (O95838 whole entry): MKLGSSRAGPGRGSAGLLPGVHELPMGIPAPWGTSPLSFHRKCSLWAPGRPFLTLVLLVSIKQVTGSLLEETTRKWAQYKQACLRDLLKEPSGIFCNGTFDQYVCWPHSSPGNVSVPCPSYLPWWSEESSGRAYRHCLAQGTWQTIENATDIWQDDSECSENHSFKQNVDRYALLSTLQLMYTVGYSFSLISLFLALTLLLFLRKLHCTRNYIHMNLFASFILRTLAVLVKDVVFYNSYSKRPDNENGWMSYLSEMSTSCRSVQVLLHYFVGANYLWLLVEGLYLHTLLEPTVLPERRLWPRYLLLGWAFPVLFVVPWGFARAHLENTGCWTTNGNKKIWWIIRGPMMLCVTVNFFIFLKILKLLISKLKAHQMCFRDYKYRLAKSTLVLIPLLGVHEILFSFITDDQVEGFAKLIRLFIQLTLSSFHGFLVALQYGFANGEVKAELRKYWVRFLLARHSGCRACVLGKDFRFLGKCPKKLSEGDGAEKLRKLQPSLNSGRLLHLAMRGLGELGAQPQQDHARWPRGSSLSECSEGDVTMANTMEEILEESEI

B1: GLP2-2G-XTEN fusion protein (protein)
chain: HGDGSFSDEMNTILDNLAARDFINWLIQTKITDGGSPAGSPTSTEEGTSESATPESGPGTSTEPSEGSAPGSPAGSPTSTEEGTSTEPSEGSAPGTSTEPSEGSAPGTSESATPESGPGSEPATSGSETPGSEPATSGSETPGSPAGSPTSTEEGTSESATPESGPGTSTEPSEGSAPGTSTEPSEGSAPGSPAGSPTSTEEGTSTEPSEGSAPGTSTEPSEGSAPGTSESATPESGPGTSTEPSEGSAPGTSESATPESGPGSEPATSGSETPGTSTEPSEGSAPGTSTEPSEGSAPGTSESATPESGPGTSESATPESGPGSPAGSPTSTEEGTSESATPESGPGSEPATSGSETPGTSESATPESGPGTSTEPSEGSAPGTSTEPSEGSAPGTSTEPSEGSAPGTSTEPSEGSAPGTSTEPSEGSAPGTSTEPSEGSAPGSPAGSPTSTEEGTSTEPSEGSAPGTSESATPESGPGSEPATSGSETPGTSESATPESGPGSEPATSGSETPGTSESATPESGPGTSTEPSEGSAPGTSESATPESGPGSPAGSPTSTEEGSPAGSPTSTEEGSPAGSPTSTEEGTSESATPESGPGTSTEPSEGSAPGTSESATPESGPGSEPATSGSETPGTSESATPESGPGSEPATSGSETPGTSESATPESGPGTSTEPSEGSAPGSPAGSPTSTEEGTSESATPESGPGSEPATSGSETPGTSESATPESGPGSPAGSPTSTEEGSPAGSPTSTEEGTSTEPSEGSAPGTSESATPESGPGTSESATPESGPGTSESATPESGPGSEPATSGSETPGSEPATSGSETPGSPAGSPTSTEEGTSTEPSEGSAPGTSTEPSEGSAPGSEPATSGSETPGTSESATPESGPGTSTEPSEGSAPG
**Q.** For B1, which calcium flux (FLIPR) in a human GLP-2 receptor-expressing Chem-11 cell line, serial dilutions, EC50 of activation is on record?
**A.** 380 nM

From paper PMC3506575
